Earlier results on one substance are cited in publication PMC8291714.

For orientation: Kd means the equilibrium constant for the complex coming apart.

The data set deals with N protein (N-RNA ring) (Rabies lyssavirus) (UniProt Q8JXF6).
Chain of UniProt Q8JXF6 (Q8JXF6 whole entry): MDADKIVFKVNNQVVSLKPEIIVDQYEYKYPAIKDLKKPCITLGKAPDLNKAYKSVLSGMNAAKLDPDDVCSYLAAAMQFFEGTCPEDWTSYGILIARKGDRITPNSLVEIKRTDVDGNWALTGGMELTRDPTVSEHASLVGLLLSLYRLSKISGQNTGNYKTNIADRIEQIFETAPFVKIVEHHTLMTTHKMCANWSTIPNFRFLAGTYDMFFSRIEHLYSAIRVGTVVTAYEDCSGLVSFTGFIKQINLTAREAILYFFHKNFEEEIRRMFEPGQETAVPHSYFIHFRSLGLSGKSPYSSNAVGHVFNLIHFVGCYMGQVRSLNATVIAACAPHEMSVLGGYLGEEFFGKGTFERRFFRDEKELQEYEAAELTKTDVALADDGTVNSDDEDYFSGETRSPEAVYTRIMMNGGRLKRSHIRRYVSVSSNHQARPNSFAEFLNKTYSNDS

With P protein CTD (from UniProt P22363), the equilibrium dissociation constant (Kd) was 160 nM.
